For one assay, the target named is T1, human ST2L (human, UniProt Q01638 19-328, limits assumed).
T1 construct: also called IL-1R4; IL-33Ra
T1 sequence (looked up): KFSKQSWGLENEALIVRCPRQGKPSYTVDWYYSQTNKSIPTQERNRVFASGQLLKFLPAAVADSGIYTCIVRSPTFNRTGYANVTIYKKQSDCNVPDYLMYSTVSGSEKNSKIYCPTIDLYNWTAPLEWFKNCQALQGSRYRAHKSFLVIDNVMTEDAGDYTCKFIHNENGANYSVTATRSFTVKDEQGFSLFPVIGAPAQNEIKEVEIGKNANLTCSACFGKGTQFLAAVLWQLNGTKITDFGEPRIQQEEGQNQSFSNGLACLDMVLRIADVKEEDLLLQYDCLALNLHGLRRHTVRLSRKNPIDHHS
The assay can be described thus: affinity table; method not stated.

The next assay deals with cyno ST2L (cyno). The assay can be described thus: affinity table; method not stated.

B1: STLM123 (antibody, from another filing, V domains shown)
VH: EVQLLESGGGLVQPGGSLRLSCAASGFTFSDYAMFWVRQAPGKGLEWVSAIEGEGGETNYADSVKGRFTISRDNSKNTLYLQMNSLRAEDTAVYYCARDPWSTEGSFFVLDYWGQGTLVTVSS
VL: EIVLTQSPATLSLSPGERATLSCRASQSVDDDLAWYQQKPGQAPRLLIYDASNRATGIPARFSGSGSGTDFTLTISSLEPEDFAVYYCQQYITAPLTFGQGTKVEIK
Take B1: in the assay with human ST2L, the Kd worked out at 0.015 nM, the koff turned out to be 0.000208 s⁻¹ and the kon is 1.37e+07 M⁻¹ s⁻¹. In the assay with cyno ST2L (cyno), this molecule yielded a Kd of 0.005 nM, a koff of 0.000519 s⁻¹ and a kon of 1e+08 M⁻¹ s⁻¹.

B2: STLM207 (antibody, from another filing, V domains shown)
VH: EVQLLESGGGLVQPGGSLRLSCAASGFTFSSYDMIWVRQAPGKGLEWVSTIRGEGGTTAYADSVKGRFTISRDNSKNTLYLQMNSLRAEDTAVYYCARDPWSTEGSFFVLDYWGQGTLVTVSS
VL: EIVLTQSPATLSLSPGERATLSCRASQSVDDDLAWYQQKPGQAPRLLIYDASNRATGIPARFSGSGSGTDFTLTISSLEPEDFAVYYCQQYITAPLTFGQGTKVEIK
In the assay with human ST2L, B2 gave a Kd of 0.048 nM, a koff of 0.000395 s⁻¹ and a kon of 8.33e+06 M⁻¹ s⁻¹. Also, in the assay with cyno ST2L (cyno), the Kd is 0.021 nM, the koff turned out to be 0.00207 s⁻¹ and the kon came out at 1e+08 M⁻¹ s⁻¹.

B3: STLM209 (antibody, from another filing, V domains shown)
VH: EVQLLESGGGLVQPGGSLRLSCAASGFTFSIYDMIWVRQAPGKGLEWVSTIRGEGGGTSYADSVKGRFTISRDNSKNTLYLQMNSLRAEDTAVYYCARDPWSTEGSFFVLDYWGQGTLVTVSS
VL: EIVLTQSPATLSLSPGERATLSCRASQSVDDDLAWYQQKPGQAPRLLIYDASNRATGIPARFSGSGSGTDFTLTISSLEPEDFAVYYCQQYITAPLTFGQGTKVEIK
In the assay with human ST2L, B3 yielded a Kd of 0.026 nM, a koff of 0.00017 s⁻¹ and a kon of 6.59e+06 M⁻¹ s⁻¹. Also, in the assay with cyno ST2L (cyno), the Kd is 0.009 nM, the off-rate constant (koff) was determined as 0.000311 s⁻¹ and the kon was found to be 3.39e+07 M⁻¹ s⁻¹.

B4: STLM210 (antibody, from another filing, V domains shown)
VH: EVQLLESGGGLVQPGGSLRLSCAASGFTFSDDAMIWVRQAPGKGLEWVSYIGGNGGTTYYADSVKGRFTISRDNSKNTLYLQMNSLRAEDTAVYYCARDPWSTEGSFFVLDYWGQGTLVTVSS
VL: EIVLTQSPATLSLSPGERATLSCRASQSVDDDLAWYQQKPGQAPRLLIYDASNRATGIPARFSGSGSGTDFTLTISSLEPEDFAVYYCQQYNDAITFGQGTKVEIK
In the assay with human ST2L, B4 yielded a Kd of 0.019 nM, a koff of 0.000227 s⁻¹ and a kon of 1.21e+07 M⁻¹ s⁻¹. In the assay with cyno ST2L (cyno), this molecule returned an equilibrium dissociation constant (Kd) of 0.009 nM, a koff of 0.000528 s⁻¹ and a kon of 5.7e+07 M⁻¹ s⁻¹.

B5: STLM124 (antibody, from another filing, V domains shown)
VH: EVQLLESGGGLVQPGGSLRLSCAASGFTFSIYDMIWVRQAPGKGLEWVSTIKGEGGGTYYADSVKGRFTISRDNSKNTLYLQMNSLRAEDTAVYYCARDPWSTEGSFFVLDYWGQGTLVTVSS
VL: EIVLTQSPATLSLSPGERATLSCRASQSVDDDLAWYQQKPGQAPRLLIYDASNRATGIPARFSGSGSGTDFTLTISSLEPEDFAVYYCQQYITAPLTFGQGTKVEIK
In the assay with human ST2L, B5 displayed a Kd of 0.046 nM, a koff of 0.000756 s⁻¹ and a kon of 1.65e+07 M⁻¹ s⁻¹. In the assay with cyno ST2L (cyno), this molecule had a Kd of 0.03 nM, a koff of 0.00257 s⁻¹ and a kon of 8.71e+07 M⁻¹ s⁻¹.

B6: STLM212 (antibody, from another filing, V domains shown)
VH: EVQLLESGGGLVQPGGSLRLSCAASGFTFSVYDMIWVRQAPGKGLEWVSTIRGEGGGTYYADSVKGRFTISRDNSKNTLYLQMNSLRAEDTAVYYCARDPWSTEGSFFVLDYWGQGTLVTVSS
VL: EIVLTQSPATLSLSPGERATLSCRASQSVDDDLAWYQQKPGQAPRLLIYDASNRATGIPARFSGSGSGTDFTLTISSLEPEDFAVYYCQQYNDAITFGQGTKVEIK
Turning to B6, in the assay with human ST2L, the Kd amounted to 0.032 nM, the koff is 0.000398 s⁻¹ and the kon worked out at 1.24e+07 M⁻¹ s⁻¹. Moreover, in the assay with cyno ST2L (cyno), the Kd is 0.024 nM, the koff came to 0.000346 s⁻¹ and the kon worked out at 1.43e+07 M⁻¹ s⁻¹.

B7: STLM208 (antibody, V domains shown)
VH: EVQLLESGGGLVQPGGSLRLSCAASGFTFSIYDMIWVRQAPGKGLEWVSSIRGEGGGTYYADSVKGRFTISRDNSKNTLYLQMNSLRAEDTAVYYCARDPWSTEGSFFVLDYWGQGTLVTVSS
VL: EIVLTQSPATLSLSPGERATLSCRASQSVDDDLAWYQQKPGQAPRLLIYDASNRATGIPARFSGSGSGTDFTLTISSLEPEDFAVYYCQQYITAPLTFGQGTKVEIK
In the assay with human ST2L, B7 came in with a dissociation constant (Kd) of 0.011 nM, an off-rate constant (koff) of 6.76e-05 s⁻¹ and a kon of 5.97e+06 M⁻¹ s⁻¹. In the assay with cyno ST2L (cyno), this molecule returned a Kd of 0.005 nM, a koff of 7.02e-05 s⁻¹ and a kon of 1.39e+07 M⁻¹ s⁻¹.

B8: STLM211 (antibody, from another filing, V domains shown)
VH: EVQLLESGGGLVQPGGSLRLSCAASGFTFSGYAMIWVRQAPGKGLEWVSYIEGEGGETYYADSVKGRFTISRDNSKNTLYLQMNSLRAEDTAVYYCARDPWSTEGSFFVLDYWGQGTLVTVSS
VL: EIVLTQSPATLSLSPGERATLSCRASQSVDDDLAWYQQKPGQAPRLLIYDASNRATGIPARFSGSGSGTDFTLTISSLEPEDFAVYYCQQYNDAITFGQGTKVEIK
As to B8, in the assay with human ST2L, the Kd was determined as 0.029 nM, the koff came to 0.000483 s⁻¹ and the on-rate constant (kon) was 1.7e+07 M⁻¹ s⁻¹. In the assay with cyno ST2L (cyno), this molecule showed a Kd of 0.014 nM, a koff of 0.00139 s⁻¹ and a kon of 1e+08 M⁻¹ s⁻¹.

B9: STLM206 (antibody, from another filing, V domains shown)
VH: EVQLLESGGGLVQPGGSLRLSCAASGFTFSIYDMIWVRQAPGKGLEWVSTIRGEGGSTYYADSVKGRFTISRDNSKNTLYLQMNSLRAEDTAVYYCARDPWSTEGSFFVLDYWGQGTLVTVSS
VL: EIVLTQSPATLSLSPGERATLSCRASQSVDDDLAWYQQKPGQAPRLLIYDASNRATGIPARFSGSGSGTDFTLTISSLEPEDFAVYYCQQYITAPLTFGQGTKVEIK
In the assay with human ST2L, B9 showed a Kd of 0.025 nM, a koff of 0.00016 s⁻¹ and a kon of 6.39e+06 M⁻¹ s⁻¹. In the assay with cyno ST2L (cyno), the Kd came out at 0.006 nM, the koff stood at 0.000583 s⁻¹ and the kon stood at 9.4e+07 M⁻¹ s⁻¹.

B10: STLM228 (antibody, from another filing, V domains shown)
VH: EVQLVQSGAEVKKPGATVKISCKVSAFNIKDDYMHWVQQAPGKGLEWMGRIDPAIGNTEYAEKFQGRVTITADTSTDTAYMELSSLRSEDTAVYYCATGDFYAMAYWGQGTLVTVSS
VL: DIQMTQSPSTLSASVGDRVTITCITNTDIDDVIHWYQQKPGKAPKLLIYEGNTLRPGVPSRFSGSGSGTEFTLTISSLQPDDFATYYCLQSDNMLTFGQGTKLEIK
In the assay with human ST2L, B10 had a Kd of 0.052 nM, a koff of 0.00104 s⁻¹ and a kon of 2.01e+07 M⁻¹ s⁻¹. In the assay with cyno ST2L (cyno), this molecule returned a dissociation constant Kd of 0.155 nM, a koff of 0.0155 s⁻¹ and a kon of 1e+08 M⁻¹ s⁻¹.

B11: STLM232 (antibody, from another filing, V domains shown)
VH: EVQLVQSGAEVKKPGATVKISCKVSAFNIKDDYMHWVQQAPGKGLEWMGRIDPAIGNTEYAEKFQGRVTITADTSTDTAYMELSSLRSEDTAVYYCATGDFYAMAYWGQGTLVTVSS
VL: DIQMTQSPSSLSASVGDRVTITCITNTDIDDVIHWYQQKPGKAPKLLIYEGNTLRPGVPSRFSGSGSGTDFTFTISSLQPEDIATYYCLQSDNMLTFGQGTKLEIK
In the case of B11, in the assay with human ST2L, the Kd is 0.025 nM, the koff turned out to be 0.000449 s⁻¹ and the kon came out at 1.78e+07 M⁻¹ s⁻¹. In the assay with cyno ST2L (cyno), this molecule returned a Kd of 0.08 nM, a koff of 0.00797 s⁻¹ and a kon of 1e+08 M⁻¹ s⁻¹.

B12: STLM229 (antibody, from another filing, V domains shown)
VH: EVQLVQSGAEVKKPGATVKISCKVSAFNIKDDYMHWVQQAPGKGLEWMGRIDPAIGNTEYAEKFQGRVTITADTSTDTAYMELSSLRSEDTAVYYCATGDFYAMAYWGQGTLVTVSS
VL: DIQMTQSPSSVSASVGDRVTITCITNTDIDDVIHWYQQKPGKAPKLLIYEGNTLRPGVPSRFSGSGSGTDFTLTISSLQPEDFATYYCLQSDNMLTFGQGTKLEIK
Regarding B12, in the assay with human ST2L, the Kd came to 0.035 nM, the koff was determined as 0.000445 s⁻¹ and the kon is 1.29e+07 M⁻¹ s⁻¹. In the assay with cyno ST2L (cyno), this molecule gave a Kd of 0.085 nM, a koff of 0.0085 s⁻¹ and a kon of 1e+08 M⁻¹ s⁻¹.

B13: STLM230 (antibody, from another filing, V domains shown)
VH: EVQLVQSGAEVKKPGATVKISCKVSAFNIKDDYMHWVQQAPGKGLEWMGRIDPAIGNTEYAEKFQGRVTITADTSTDTAYMELSSLRSEDTAVYYCATGDFYAMAYWGQGTLVTVSS
VL: DIQMTQSPSSLSASVGDRVTITCITNTDIDDVIHWYQQKPGKAPKLLIYEGNTLRPGVPSRFSGSGSGTDFTLTISSLQPEDFATYYCLQSDNMLTFGQGTKLEIK
In the assay with human ST2L, B13 yielded a Kd of 0.038 nM, an off-rate constant (koff) of 0.000426 s⁻¹ and an on-rate constant (kon) of 1.11e+07 M⁻¹ s⁻¹. Also, in the assay with cyno ST2L (cyno), the dissociation constant Kd came out at 0.144 nM, the off-rate constant (koff) worked out at 0.0073 s⁻¹ and the kon amounted to 5.06e+07 M⁻¹ s⁻¹.

B14: STLM231 (antibody, from another filing, V domains shown)
VH: EVQLVQSGAEVKKPGATVKISCKVSAFNIKDDYMHWVQQAPGKGLEWMGRIDPAIGNTEYAEKFQGRVTITADTSTDTAYMELSSLRSEDTAVYYCATGDFYAMAYWGQGTLVTVSS
VL: DIQMTQSPSSLSASVGDRVTITCITNTDIDDVIHWYQQKPGKVPKLLIYEGNTLRPGVPSRFSGSGSGTDFTLTISSLQPEDVATYYCLQSDNMLTFGQGTKLEIK
In the assay with human ST2L, B14 returned a Kd of 0.046 nM, a koff of 0.000913 s⁻¹ and a kon of 1.97e+07 M⁻¹ s⁻¹. Besides, in the assay with cyno ST2L (cyno), the Kd is 0.172 nM, the koff was 0.0143 s⁻¹ and the kon was found to be 8.27e+07 M⁻¹ s⁻¹.

The values are drawn from patent US20190202907A1 (180 THERAPEUTICS, published 2019).
